In US20240317807A1 (COMPLIX, published 2024):

How the values were obtained:
human serum albumin [1] = target: T1, human serum albumin (human, UniProt P02768 25-609); assay: solution ELISA, KD 310 nM against 7.5 nM
T1 construct: also called HSA
Method: (§1) A Nunc plate was blocked O/N with PBS+2% skimmed milk in PBS at 4° C. […] In addition, a ‘calibrator’ dilution series of CPAB (seven 3-fold dilutions starting at 100 nM plus a blank) in 100 mM TRIS+100 mM NaCl+1% BSA at pH 7.4 was prepared. The albumin-CPAB mixtures and the calibrator series were then transferred to the ELISA plate in duplicate (two columns for each series) and incubated for another 30 min at RT while shaking. Detection of plate-bound CPAB was performed with 1/5000 anti-V5-HRP (Invitrogen. R961-25) in PBS+0.1% BSA for 30 min at RT while shaking. After each incubation step, the plate was washed 4× with PBS containing 0.05% Tween 20.

[2] = target: MCL-1 (endogenous, in human multiple myeloma cells such as NCI-H929) (human, UniProt Q07820 1-350); assay: cell-based or functional assay
MCL-1 (endogenous, in human multiple myeloma cells such as NCI-H929), sequence (Q07820 whole entry, the tested form may be a part): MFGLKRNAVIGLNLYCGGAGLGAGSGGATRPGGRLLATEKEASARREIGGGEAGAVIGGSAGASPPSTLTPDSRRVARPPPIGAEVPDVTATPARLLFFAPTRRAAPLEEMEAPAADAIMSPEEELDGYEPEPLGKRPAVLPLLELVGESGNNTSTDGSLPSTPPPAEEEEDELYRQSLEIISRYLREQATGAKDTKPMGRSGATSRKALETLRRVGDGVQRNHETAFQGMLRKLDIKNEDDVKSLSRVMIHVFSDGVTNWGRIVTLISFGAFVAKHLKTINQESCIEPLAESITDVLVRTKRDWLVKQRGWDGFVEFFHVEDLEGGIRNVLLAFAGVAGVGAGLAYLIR

[3] = target: T2, GST-tagged MCL-1 (GST-MCL-1 fusion protein, MCL-1 residues Asp172-Gly327) (human, UniProt Q07820 173-327); assay: solution ELISA, free GST-MCL-1 captured on Alphabody phage
T2 construct: not shown: Glutathione S-transferase fusion partner from the pET42 vector (Novagen)
T2 sequence (Q07820 173-327): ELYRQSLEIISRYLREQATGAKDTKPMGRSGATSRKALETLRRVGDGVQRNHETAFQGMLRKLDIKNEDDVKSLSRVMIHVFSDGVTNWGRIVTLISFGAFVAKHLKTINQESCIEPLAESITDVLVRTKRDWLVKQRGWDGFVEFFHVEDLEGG
Method: A Nunc plate was coated with 1 μg/mL anti-M13 (Fischer Scientific) in PBS for 2 h at room temperature (RT). The plate was then blocked with 2% skimmed milk in PBS for 2 h at RT while shaking. […] After each incubation step, the plate was washed 4× with PBS containing 0.05% Tween 20, except after the incubation step of the mixture and calibrator samples where the plate was washed 12 times. The plate was developed with Sure Blue and the reaction was stopped with H₂SO₄. Optical densities (ODs) were read at 450 nm.

mouse serum albumin = target: T3, mouse serum albumin (mouse, UniProt P07724 25-608); assay: solution ELISA, free CPAB detected on milk-blocked plate
T3 construct: also called MSA
T3 sequence (P07724 25-608 limits assumed): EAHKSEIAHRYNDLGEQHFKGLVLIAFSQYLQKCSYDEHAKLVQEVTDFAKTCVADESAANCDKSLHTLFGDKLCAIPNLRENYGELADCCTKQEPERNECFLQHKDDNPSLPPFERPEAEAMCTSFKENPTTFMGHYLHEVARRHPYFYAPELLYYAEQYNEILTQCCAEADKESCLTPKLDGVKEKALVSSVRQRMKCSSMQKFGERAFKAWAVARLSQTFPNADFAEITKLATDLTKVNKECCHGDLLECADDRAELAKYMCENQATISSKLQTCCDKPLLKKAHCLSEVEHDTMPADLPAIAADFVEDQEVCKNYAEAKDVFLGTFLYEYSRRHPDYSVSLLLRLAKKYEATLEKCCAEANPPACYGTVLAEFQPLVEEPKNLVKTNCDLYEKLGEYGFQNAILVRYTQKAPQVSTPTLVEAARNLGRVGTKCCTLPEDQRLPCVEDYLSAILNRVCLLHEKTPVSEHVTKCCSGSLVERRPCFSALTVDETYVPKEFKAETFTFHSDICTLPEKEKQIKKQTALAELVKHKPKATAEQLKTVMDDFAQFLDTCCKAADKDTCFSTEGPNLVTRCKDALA
Method: as §1

human serum albumin [4] = target: T1, human serum albumin; assay: as above
Method: as §1

Binder | fold reduction in affinity against the Gly40 form (human serum albumin [1]) | in vitro IC50 on MM cell line MOLP-8 [2] | in vitro IC50 on MM cell line NCI-H929 [2] | Kd [3] | Kd (mouse serum albumin) | Kd (human serum albumin [4])
Alphabody CMPX-383B (designed binder, an engineered disulfide bond links helix E to helix C; Has Ala at the position called 40) MGHHHHHHHHHHSSGHIEGRHGPRPRPRPRPRPRPRPGGMSTEQIQKRTAAIQKRIAAIQKRIYAMTASGGAGAAGAGAGMSIEEITKQIAAIQLRIVGDQVQIAYQTASGAGAGAGGMSTEEIQKQIAAIETQICKIEAAIELKEAGITSDFYFELINKAKTCEAVEALKEHILAAHTPRPRPRPRPRPRPRPGSGKPIPNPLLGLDST | 40 fold | 820 nM | 450 nM | 0.028 nM | 2250 nM | 310 nM
CMPX_383B_Gly40 (designed binder) MGHHHHHHHHHHSSGHIEGRHGPRPRPRPRPRPRPRPGGMSTEQIQKRTAAIQKRIAAIQKRIYAMTASGGAGAAGAGAGMSIEEITKQIAAIQLRIVGDQVQIAYQTASGAGAGAGGMSTEEIQKQIAAIETQICKIEAAIELKEAGITSDFYFELINKAKTCEGVEALKEHILAAHTPRPRPRPRPRPRPRPGSGKPIPNPLLGLDST | – | – | – | 0.043 nM | 298 nM | 7.5 nM
